The target of assay [1] is IBSSαγ complex.
Substrate in assay [2]: T1, BSSαγ complex (UniProt O68395)
T1 sequence 1: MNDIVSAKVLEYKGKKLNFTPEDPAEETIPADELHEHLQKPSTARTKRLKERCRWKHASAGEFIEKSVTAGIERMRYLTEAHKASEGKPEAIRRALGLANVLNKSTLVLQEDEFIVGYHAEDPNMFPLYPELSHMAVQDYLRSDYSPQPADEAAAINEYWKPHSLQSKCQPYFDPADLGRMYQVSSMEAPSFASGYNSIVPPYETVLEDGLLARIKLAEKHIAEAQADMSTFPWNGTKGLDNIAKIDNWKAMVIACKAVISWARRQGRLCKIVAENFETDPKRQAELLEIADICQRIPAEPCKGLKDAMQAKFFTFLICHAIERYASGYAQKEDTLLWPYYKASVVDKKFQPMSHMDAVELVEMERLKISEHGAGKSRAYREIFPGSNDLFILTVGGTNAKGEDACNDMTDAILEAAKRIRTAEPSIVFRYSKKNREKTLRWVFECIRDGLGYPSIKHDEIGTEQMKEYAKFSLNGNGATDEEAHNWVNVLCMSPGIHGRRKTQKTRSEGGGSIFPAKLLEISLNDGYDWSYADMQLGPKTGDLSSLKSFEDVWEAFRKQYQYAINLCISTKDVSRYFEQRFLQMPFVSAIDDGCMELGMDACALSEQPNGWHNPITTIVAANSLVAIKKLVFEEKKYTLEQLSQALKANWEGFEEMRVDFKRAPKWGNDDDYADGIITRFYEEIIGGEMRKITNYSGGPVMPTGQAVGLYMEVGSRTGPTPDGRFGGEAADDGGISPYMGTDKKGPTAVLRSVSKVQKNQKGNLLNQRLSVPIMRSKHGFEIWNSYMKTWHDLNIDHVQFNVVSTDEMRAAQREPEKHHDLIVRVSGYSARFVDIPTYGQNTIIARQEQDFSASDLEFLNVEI
T1 sequence 2: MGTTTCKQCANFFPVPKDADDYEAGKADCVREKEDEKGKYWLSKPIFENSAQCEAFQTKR

With “4-isopropylbenzylsuccinate synthase beta subunit (IBSSβ), affinity tag removed (from UniProt A0A096ZP03 1-73) (natural protein)”, in assay [1], the AdoMet cleavage by as purified IbsAE with IBSSαγ and IBSSβ added (dAdo by LCMS, 2 h endpoint, n = 3); 47.6 μM dAdo without IBSSβ came out at 7.2 μM dAdo; the AdoMet cleavage by reconstituted IbsAE with IBSSαγ and IBSSβ added (dAdo by LCMS, 2 h endpoint, n = 3); 46.7 μM dAdo without IBSSβ amounted to 5.4 μM dAdo.
For the molecule “4-isopropylbenzylsuccinate synthase activating enzyme (IbsAE)”, in assay [1], the AdoMet cleavage by as purified IbsAE with IBSSαγ added (dAdo by LCMS, 2 h endpoint, n = 3); 1.1 μM dAdo without IBSSαγ turned out to be 47.6 μM dAdo and the AdoMet cleavage by reconstituted IbsAE with IBSSαγ added (dAdo by LCMS, 2 h endpoint, n = 3); 1.4 μM dAdo without IBSSαγ worked out at 46.7 μM dAdo.

B1: Benzylsuccinate synthase beta subunit (BSSβ), affinity tag removed (natural protein)
chain: MEGSNMETGQNLQNQPHTEVGTARPCRSCKWQTPDPTDPHRGQCTANRHAMGGVWKRWLRDVENTTCSRHEEGKLSFRDHV
On to B1, for which the benzylsuccinate formed from fumarate and toluene by activated BSSαγ (40 μM) with BSSβ (40 μM) added (assay yield by QToF-LCMS, n = 9); 0.7% without BSSβ (% assay yield) in assay [2] stood at 92.3.

These data come from PMC10239695.
